Two molecules from US20160333418A1 (SANTA MARIA BIOTHERAPEUTICS, published 2016) can be followed below.

Positions count from the first letter of the chain named. Names and notes keep the numbering of the source.

For test [1], the target named is T1, myostatin (human, UniProt O14793 267-375).
T1 sequence: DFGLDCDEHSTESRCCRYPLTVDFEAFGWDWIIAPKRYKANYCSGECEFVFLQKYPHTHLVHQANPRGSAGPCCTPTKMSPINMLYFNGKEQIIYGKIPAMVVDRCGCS
The test can be described thus: cell-based or functional assay.

Test [2] concerns the target T2, activin A (human, UniProt P08476 311-426).
T2 sequence: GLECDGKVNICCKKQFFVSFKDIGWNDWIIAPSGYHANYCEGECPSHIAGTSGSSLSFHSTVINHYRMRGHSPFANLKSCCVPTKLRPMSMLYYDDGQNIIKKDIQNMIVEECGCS
The test can be described thus: cell-based or functional assay.

Test [3] has as its target T1, myostatin. Briefly: KinExA solution equilibrium binding, ligand-coated beads, room temperature. As to the method:
(§1) Solution-based equilibrium-binding assays using KinExA™ technology (Sapidyne Instruments, Inc.) were used to determine the dissociation equilibrium (KD) of ligand binding to ActRIIB-Fc polypeptides. UltraLink Biosupport beads (Pierce) was pre-coated with about 100 μg/m1 each of myostatin, GDF-11, and activin A overnight, and then blocked with BSA. 1 pM and 3 pM of ActRIIB-Fc (E28W) (SEQ ID NO: 21) and svActRIIB-Fc (E28W, S44T) (SEQ ID NO: 10) samples were incubated with various concentrations (0.7 fM to 160 pM) of myostatin, activin A, and GDF-11 respectively in sample buffer at room temperature for 8 hours before being run through the ligand-coated beads. The amount of the bead-bound soluble receptor was quantified by fluorescent (Cy5) labeled goat anti-human-Fc antibody at 1 mg/ml in superblock. The binding signal is proportional to the concentration of free soluble receptor at equilibrium with a given myostatin, activin A, or GDF-11 concentration. KD was obtained from the nonlinear regression of the competition curves using a dual-curve one-site homogeneous binding model provided in the KinEx A™ software (Sapidyne Instruments, Inc.).
(In general: Kinetic exclusion samples the free partner from a solution-phase mixture.)

Test [4] deals with T2, activin A. The description is as above. As to the method:
as §1

Test [5] deals with GDF-11 (Homo sapiens (Human)) (UniProt O95390). The test can be described thus: cell-based or functional assay.
The target is the same in test [6]. Briefly: KinExA solution equilibrium binding, ligand-coated beads, room temperature.

B1: ActRIIB-Fc (E28W) (Fc fusion)
chain: ETRWCIYYNANWELERTNQSGLERCEGEQDKRLHCYASWRNSSGTIELVKKGCWLDDFNCYDRQECVATEENPQVYFCCCEGNFCNERFTHLPEAGGPEVTYEPPPTAPTGGGGSVECPPCPAPPVAGPSVFLFPPKPKDTLMISRTPEVTCVVVDVSHEDPEVQFNWYVDGVEVHNAKTKPREEQFNSTFRVVSVLTVVHQDWLNGKEYKCKVSNKGLPAPIEKTISKTKGQPREPQVYTLPPSREEMTKNQVSLTCLVKGFYPSDIAVEWESNGQPENNYKTTPPMLDSDGSFFLYSKLTVDKSRWQQGNVFSCSVMHEALHNHYTQKSLSLSPGK
notes: also called ActRIIB-IgG2Fc (E28W); ActRIIB-IgG Fc (E28W)
Turning to B1, the “IC50, luciferase activity in C2C12/pMARE reporter cells, 4 nM ligand” value came to 0.95 nM with myostatin [1], 3.2 nM with activin A [2] and 2.4 nM in test [5]. The Kd (usually the constant that tells how readily two partners part at equilibrium) in the test with myostatin [3] came to 0.1 pM; in the test with activin A [4], 0.2 pM; in test [6], 0.1 pM.

B2: svActRIIB-Fc (E28W, S44T) (Fc fusion)
chain: B1 chain with S20T
notes: also called svActRIIB-IgG2Fc (E28W, S44T); svActRIIB-IgG Fc (E28W, S44T)
For B2, the “IC50, luciferase activity in C2C12/pMARE reporter cells, 4 nM ligand” value was found to be 1.07 nM with myostatin [1], 3.6 nM with activin A [2] and 2.4 nM in test [5]. The Kd (in the test with myostatin [3]; with activin A [4]; in test [6]) was 0.1 pM in each case.
